Data reported in paper PMC5372565, “Proline Residues as Switches in Conformational Changes Leading to Amyloid Fibril Formation” (International Journal of Molecular Sciences, 2017).
“And” between values parts separate entries of the source, which are not always exact repeats. Equal values may be shown once.

What was measured:
P04080 [1] = test: SEC; Y31 variant and its mutants; conditions not told for this experiment
[2] = biological target: stefin B-Y31 P79S mutant (human) (UniProt P04080); test: as above
[3] = biological target: the molecule itself; test: SEC; Superdex 75 FPLC column, 0.5 mL/min, typically 100 uL of 50 uM protein, 10 mM potassium phosphate pH 7.0, 0.15 M NaCl; samples frozen and unfrozen once; percentages estimated from the surface area of the peaks
P04080 [4] = test: as above
[5] = biological target: the molecule itself; test: SEC; Y31 variant and its mutants; conditions not told for this experiment
P04080 [6] = test: as above; remark: listed apart in the source

## stefin B-Y31 P79S mutant
P04080 [1]
  percent dimers (SEC): 100% were dimeric

## stefin B-Y31 P79S mutant (from UniProt P04080 4-98) (natural protein)
[2]
  stoichiometry N: 2

B1: stefin B P79S mutant (of the wt C3S E31-stefin B) (natural protein, human, UniProt P04080 1-98, looked up)
chain: MMSGAPSATQPATAETQHIADQVRSQLEEKENKKFPVFKAVSFKSQVVAGTNYFIKVHVGDEDFVHLRVFQSLPHENKSLTLSNYQTNKAKHDELTYF
notes: human stefin B (cystatin B), 98 amino acids, E31 variant, C3S, with P79S
[3]
  stoichiometry N: 4 and 2
P04080 [4]
  percent dimers (SEC peak area): 55% dimers
  percent higher molecular weight species (SEC peak area): 15% of higher molecular weight species
  percent tetramers (SEC peak area): around 30% tetramers

B2: stefin B-Y31 variant (with Y at site 31) (natural protein, human, UniProt P04080 1-98, looked up)
chain: MMSGAPSATQPATAETQHIADQVRSQLEEKYNKKFPVFKAVSFKSQVVAGTNYFIKVHVGDEDFVHLRVFQSLPHENKPLTLSNYQTNKAKHDELTYF
notes: human stefin B (cystatin B), 98 amino acids, variant with Y at site 31; Cys 3 changed to Ser 'for all in vitro studies'
[5]
  stoichiometry N: 2
P04080 [6]
  percent monomers (SEC): 70% and 75% of molecules were monomers, respectively and the rest were dimers

B3: stefin B P6L mutant (of the wt C3S E31-stefin B) (natural protein, human, UniProt P04080 1-98, looked up)
chain: MMSGALSATQPATAETQHIADQVRSQLEEKENKKFPVFKAVSFKSQVVAGTNYFIKVHVGDEDFVHLRVFQSLPHENKPLTLSNYQTNKAKHDELTYF
notes: human stefin B (cystatin B), 98 amino acids, E31 variant, C3S, with P6L
[3]
  binding result: binds

B4: wild-type like C3S E31-stefin B (human) (natural protein, UniProt P04080 1-98, looked up)
chain: MMSGAPSATQPATAETQHIADQVRSQLEEKENKKFPVFKAVSFKSQVVAGTNYFIKVHVGDEDFVHLRVFQSLPHENKPLTLSNYQTNKAKHDELTYF
notes: human stefin B (cystatin B), 98 amino acids, E31 variant, Cys 3 changed to Ser; also called wt stefin B; wt
[3]
  stoichiometry N: 2 and 4
P04080 [4]
  percent dimers (SEC peak area): 65% dimers
  percent higher oligomers (SEC peak area): 10% of higher oligomers
  percent monomers (SEC peak area): 5% monomers
  percent tetramers (SEC peak area): 20% tetramers

B5: stefin B P36D mutant (of the wt C3S E31-stefin B) (natural protein, human, UniProt P04080 1-98, looked up)
chain: MMSGAPSATQPATAETQHIADQVRSQLEEKENKKFDVFKAVSFKSQVVAGTNYFIKVHVGDEDFVHLRVFQSLPHENKPLTLSNYQTNKAKHDELTYF
notes: human stefin B (cystatin B), 98 amino acids, E31 variant, C3S, with P36D
[3]
  stoichiometry N: 2 and 4

B6: stefin B P11S mutant (of the wt C3S E31-stefin B) (natural protein, human, UniProt P04080 1-98, looked up)
chain: MMSGAPSATQSATAETQHIADQVRSQLEEKENKKFPVFKAVSFKSQVVAGTNYFIKVHVGDEDFVHLRVFQSLPHENKPLTLSNYQTNKAKHDELTYF
notes: human stefin B (cystatin B), 98 amino acids, E31 variant, C3S, with P11S
[3]
  binding result: binds

B7: stefin B P74S mutant (of the wt C3S E31-stefin B) (protein)
chain: MMSGAPSATQPATAETQHIADQVRSQLEEKENKKFPVFKAVSFKSQVVAGTNYFIKVHVGDEDFVHLRVFQSLSHENKPLTLSNYQTNKAKHDELTYF
P04080 [4]
  percent oligomers (SEC): The tendency to form oligomers is high for the P74S mutant of the wt (>50%)

B8: stefin B-Y31 P36G mutant (natural protein, human, UniProt P04080 1-98, looked up)
chain: MMSGAPSATQPATAETQHIADQVRSQLEEKYNKKFGVFKAVSFKSQVVAGTNYFIKVHVGDEDFVHLRVFQSLPHENKPLTLSNYQTNKAKHDELTYF
notes: human stefin B (cystatin B), 98 amino acids, variant with Y at site 31, with P36G; Cys 3 changed to Ser 'for all in vitro studies'
[5]
  stoichiometry N: 2
P04080 [6]
  percent monomers (SEC): 70% and 75% of molecules were monomers, respectively and the rest were dimers
